Values belong to the binder of their own block, whether it stands above or below them. Where no end group is shown, it is not given here.
How the values were obtained:
[1] = target: T1, TAZ1 domain of CBP (residues 340-439 of mouse CBP) (mouse, UniProt P45481 340-439); experiment: stopped-flow fluorescence
[2] = target: T1, TAZ1 domain of CBP (residues 340-439 of …); experiment: fluorescence polarisation + BLI
[3] = target: T1, TAZ1 domain of CBP (residues 340-439 of …); experiment: fluorescence polarisation
[4] = target: T1, TAZ1 domain of CBP (residues 340-439 of …); experiment: fluorescence polarisation; remark: listed apart in the source

T1 sequence (P45481 340-439): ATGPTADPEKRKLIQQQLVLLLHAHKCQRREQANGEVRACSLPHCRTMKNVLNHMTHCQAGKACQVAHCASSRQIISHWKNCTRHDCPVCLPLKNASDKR

B2: CITED2 transactivation domain peptide (residues 216-269) (peptide, UniProt Q99967 216-269, looked up)
chain: NVIDTDFIDEEVLMSLVIEMGLDRIKELPELWLGQNEFDFMTDFVCKQQPSRVS
Kd [2]: 10 nM

B3: HIF-1α 776-826 C800V labeled with Alexa Fluor 594 at position 780 (peptide, UniProt Q16665 776-826, looked up)
chain: SDLAC(Alexa Fluor 594)RLLGQSMDESGLPQLTSYDVEVNAPIQGSRNLLQGEELLRALDQVN
binding result [3]: binds

B4: HIF-1α C-terminal transactivation domain peptide (residues 776-826) (peptide, UniProt Q16665 776-826, looked up)
chain: SDLACRLLGQSMDESGLPQLTSYDCEVNAPIQGSRNLLQGEELLRALDQVN
apparent Kd (displacing labeled HIF-1α from TAZ1) [3]: 10 ± 1 nM
Kd [2]: 10 nM

Second part, the binder after the results:

binding result [1]: binds
B1: HIF-1α 776-826 C800V labeled with Alexa Fluor 488 at position 780 (peptide, UniProt Q16665 776-826, looked up)
chain: SDLAC(Alexa Fluor 488)RLLGQSMDESGLPQLTSYDVEVNAPIQGSRNLLQGEELLRALDQVN

binding result [4]: binds
B5: CITED2 216-269 labeled with Alexa Fluor 594 at Cys 261 (peptide, UniProt Q99967 216-269, looked up)
chain: NVIDTDFIDEEVLMSLVIEMGLDRIKELPELWLGQNEFDFMTDFVC(Alexa Fluor 594)KQQPSRVS

Source: paper PMC5375031 (Nature, 2017)
